One may read the Kd as the equilibrium constant for the complex coming apart. What is called koff is a measure of how fast the partners let go of each other.

The target of test [1] is recombinant CD81 large extracellular loop. The test can be described thus: SPR; BiaCore T200, CM5 chip, room temperature; CD81-LEL immobilised at about 150 RU; Fc-E1E2 flowed at 0-250 ug/ml; HBS-EP pH 7.4, 150 mM NaCl; 1:1 steady state binding model. For orientation: SPR reads the build-up and loss of mass on a sensor chip optically.
For test [2], the target named is T1, recombinant CD81 large extracellular loop.
T1 chain: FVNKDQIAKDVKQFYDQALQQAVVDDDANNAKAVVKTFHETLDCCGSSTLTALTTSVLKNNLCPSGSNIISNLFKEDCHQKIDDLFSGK
The test can be described thus: SPR.

For “Fc-E1E2 from Con1 (GT1b), recombinant full-length E1E2 heterodimer (from UniProt Q9WMX2 192-383; Q9WMX2 384-746) (complex)”, the Kd in test [1] came to 327 nM. Regarding “Fc-E1E2 from H77 (GT1a), recombinant full-length E1E2 heterodimer (complex)”, the Kd in test [1] is 382 nM.

As for “Fc-E1E2 from HK6a (GT6a), recombinant full-length E1E2 heterodimer (complex)”, the dissociation constant Kd in test [1] was 775 nM. Regarding “Fc-E1E2 from J6 (GT2a), recombinant full-length E1E2 heterodimer (complex)”, the Kd in test [1] stood at 243 nM. Regarding “Fc-E1E2 from S52 (GT3a), recombinant full-length E1E2 heterodimer (complex)”, in test [1], the Kd turned out to be 71 nM.

B1: Fc-E1E2 from HK6a (GT6a), recombinant full-length E1E2 heterodimer (complex)
chain 1: LTYGNSSGLYHLTNDCPNSSIVLEADAMILHLPGCLPCVRVNNNQSICWHAVSPTLAIPNASTPATGFRRHVDLLAGAAVVCSSLYIGDLCGSLFLAGQLFTFQPRRHWTVQDCNCSIYTGHVTGHRMAWDMMMNWSPTTTLVLSSILRVPEICASVISGGHWGILLAVAYFGMAGNWLKVLAVLFLFAGVE
chain 2: ATTTIGHQVGRTTGGLASLFSIGPRQNLQLINTTGSWHINRTALNCNDSLQTGFITSLFYAKNVNSSGCPERMAACKPLADFRQGWGQITYKVNISGPSDDRPYCWHYAPRPCDVVSARTVCGPVYCFTPSPVVVGTTDKLGIPTYNWGENETDVFMLESLRPPTGGWFGCTWMNSTGFTKTCGAPPCQIVPGDYNSSANELLCPTDCFRKHPEATYQRCGSGPWITPRCLVDYPYRLWHYPCTVNFTLHKVRMFVGGIEHRFDAACNWTRGERCDLHDRDRIEMSPLLFSTTQLAILPCSFSTMPALSTGLIHLHQNIVDVQYLYGVSSSVTSWVVKWEYIVLVFLVLADARICTCLWLMLLITNVEA
On to B1, for which the koff in test [2] was 0.0022 s⁻¹.

B2: Fc-E1E2 from J6 (GT2a), recombinant full-length E1E2 heterodimer (complex)
chain 1: AEVKNISTGYMVTNDCTNDSITWQLQAAVLHVPGCVPCEKVGNASQCWIPVSPNVAVQRPGALTQGLRTHIDMVVMSATLCSALYVGDLCGGVMLAAQMFIVSPQHHWFVQDCNCSIYPGTITGHRMAWDMMMNWSPTATMILAYAMRVPEVIIDIISGAHWGVMFGLAYFSMQGAWAKVVVILLLAAGVDA
chain 2: RTHTVGGSAAQTTGRLTSLFDMGPRQKIQLVNTNGSWHINRTALNCNDSLHTGFIASLFYTHSFNSSGCPERMSACRSIEAFRVGWGALQYEDNVTNPEDMRPYCWHYPPRQCGVVSAKTVCGPVYCFTPSPVVVGTTDRLGAPTYTWGENETDVFLLNSTRPPLGSWFGCTWMNSSGYTKTCGAPPCRTRADFNASTDLLCPTDCFRKHPDTTYLKCGSGPWLTPRCLIDYPYRLWHYPCTVNYTIFKIRMYVGGVEHRLTAACNFTRGDRCNLEDRDRSQLSPLLHSTTEWAILPCSYSDLPALSTGLLHLHQNIVDVQFMYGLSPALTKYIVRWEWVILLFLLLADARVCACLWMLILLGQAEA
Turning to B2, the off-rate (koff) in test [2] stood at 0.00104 s⁻¹.

B3: Fc-E1E2 from S52 (GT3a), recombinant full-length E1E2 heterodimer (complex)
chain 1: LEWRNTSGLYVLTNDCSNSSIVYEADDVILHTPGCVPCVQDDNTSTCWTPVTPTVAVRYVGATTASIRSHVDLLVGAATLCSALYVGDMCGAVFLVGQAFTFRPRRHQTVQTCNCSLYPGHVSGHRMAWDMMMNWSPAVGMVVAHILRLPQTLFDILAGAHWGILAGLAYYSMQGNWAKVAIVMIMFSGVDA
chain 2: ETYVTGGSVAHSARGLTSLFSMGAKQKLQLVNTNGSWHINSTALNCNESINTGFIAGLFYYHKFNSTGCPQRLSSCKPIISFRQGWGPLTDANITGPSDDRPYCWHYAPRPCSVVPASSVCGPVYCFTPSPVVVGTTDIKGKPTYNWGENETDVFLLESLRPPSGRWFGCAWMNSTGFLKTCGAPPCNIYGGEGDPENETDLFCPTDCFRKHPEATYSRCGAGPWLTPRCMVDYPYRLWHYPCTVNFTLFKVRMFVGGFEHRFTAACNWTRGERCNIEDRDRSEQHPLLHSTTELAILPCSFTPMPALSTGLIHLHQNIVDVQYLYGVGSDMVGWALKWEFVILVFLLLADARVCVALWLMLMVSQAEA
For the molecule B3, in test [2], the off-rate constant (koff) is 0.000465 s⁻¹.

B4: Fc-E1E2 from Con1 (GT1b), recombinant full-length E1E2 heterodimer (complex)
chain 1: YEVRNVSGVYHVTNDCSNASIVYEAADMIMHTPGCVPCVRENNSSRCWVALTPTLAARNASVPTTTIRRHVDLLVGAAALCSAMYVGDLCGSVFLVAQLFTFSPRRHETVQDCNCSIYPGHVTGHRMAWDMMMNWSPTAALVVSQLLRIPQAVVDMVAGAHWGVLAGLAYYSMVGNWAKVLIVMLLFAGVDG
chain 2: GTYVTGGTMAKNTLGITSLFSPGSSQKIQLVNTNGSWHINRTALNCNDSLNTGFLAALFYVHKFNSSGCPERMASCSPIDAFAQGWGPITYNESHSSDQRPYCWHYAPRPCGIVPAAQVCGPVYCFTPSPVVVGTTDRFGVPTYSWGENETDVLLLNNTRPPQGNWFGCTWMNSTGFTKTCGGPPCNIGGIGNKTLTCPTDCFRKHPEATYTKCGSGPWLTPRCLVHYPYRLWHYPCTVNFTIFKVRMYVGGVEHRLEAACNWTRGERCNLEDRDRSELSPLLLSTTEWQVLPCSFTTLPALSTGLIHLHQNVVDVQYLYGIGSAVVSFAIKWEYVLLLFLLLADARVCACLWMMLLIAQAEA
Turning to B4, in test [2], the koff was 0.00277 s⁻¹.
